B1: FLAG-tagged UbxD8 (wild type) (natural protein)
chain: MAAPEERDLTQEQTEKLLQFQDLTGIESMDQCRHTLEQHNWNIEAAVQDRLNEQEGVPSVFNPPPSRPLQVNTADHRIYSYVVSRPQPRGLLGWGYYLIMLPFRFTYYTILDIFRFALRFIRPDPRSRVTDPVGDIVSFMHSFEEKYGRAHPVFYQGTYSQALNDAKRELRFLLVYLHGDDHQDSDEFCRNTLCAPEVISLINTRMLFWACSTNKPEGYRVSQALRENTYPFLAMIMLKDRRMTVVGRLEGLIQPDDLINQLTFIMDANQTYLVSERLEREERNQTQVLRQQQDEAYLASLRADQEKERKKREERERKRRKEEEVQQQKLAEERRRQNLQEEKERKLECLPPEPSPDDPESVKIIFKLPNDSRVERRFHFSQSLTVIHDFLFSLKESPEKFQIEANFPRRVLPCIPSEEWPNPPTLQEAGLSHTEVLFVQDLTDE
B2: FLAG-tagged UBAC2 (recombinant, WT) (natural protein)
chain: HCQKLFVYDLHAVKNDFQIWRLICGRIICLDLKDTFCSSLLIYNFRIFERRYGSRKFASFLLGSWVLSALFDFLLIEAMQYFFGITAASNLPSGFLAPVFALFVPFYCSIPRVQVAQILGPLSITNKTLIYILGLQLFTSGSYIWIVAISGLMSGLCYDSKMFQVHQVLCIPSWMAKFFSWTLEPIFSSSEPTSEARIGMGATLDIQRQQRMELLDRQLMFSQFAQGRRQRQQQGGMINWNRLFPPLRQRQNVNYQGGRQSEPAAPPLEVSEEQVARLMEMGFSRGDALEALRASNNDLNVATNFLLQH

The target in one assay is FLAG-tagged gp78 (UniProt Q9UKV5 1-643). Briefly: co-IP.
Assay [1] concerns the target B1. The experiment in a line: co-IP.

FLAG-tagged gp78, sequence (Q9UKV5 whole entry): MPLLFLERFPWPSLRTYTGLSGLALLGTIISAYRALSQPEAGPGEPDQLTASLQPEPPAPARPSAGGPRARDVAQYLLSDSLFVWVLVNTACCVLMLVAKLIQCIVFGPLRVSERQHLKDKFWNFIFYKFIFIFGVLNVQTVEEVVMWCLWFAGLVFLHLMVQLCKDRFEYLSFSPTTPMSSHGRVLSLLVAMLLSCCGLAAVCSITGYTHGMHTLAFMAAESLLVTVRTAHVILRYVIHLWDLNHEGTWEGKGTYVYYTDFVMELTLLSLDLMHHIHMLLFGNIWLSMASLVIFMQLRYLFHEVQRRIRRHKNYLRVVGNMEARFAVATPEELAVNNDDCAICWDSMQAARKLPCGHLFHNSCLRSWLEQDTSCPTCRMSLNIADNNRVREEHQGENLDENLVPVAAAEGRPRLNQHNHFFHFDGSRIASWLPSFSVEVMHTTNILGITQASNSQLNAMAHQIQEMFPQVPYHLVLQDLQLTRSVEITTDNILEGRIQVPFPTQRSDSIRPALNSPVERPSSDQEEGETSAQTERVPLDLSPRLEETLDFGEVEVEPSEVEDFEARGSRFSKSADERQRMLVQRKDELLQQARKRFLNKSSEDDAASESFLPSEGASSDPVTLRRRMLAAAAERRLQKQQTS

For the molecule B1, the “stoichiometry N” value with FLAG-tagged gp78 is about 1 UbxD8 per gp78.

In the case of B2, the figures for the “stoichiometry N” value (in assay [1]; with FLAG-tagged gp78) were about 2 UBAC2 per UbxD8 and about 2 UBAC2 per gp78, respectively.

The record behind these values is publication PMC4666138 (Molecular Biology of the Cell, 2015).
